Test results reported in the nanobody polyreactivity screen of Harvey et al. (2022).

experiment: yeast display, Sf9 membrane polyspecificity reagent, FACS + sequencing; frameworks hold sequencing errors
How it was run: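 Galactose induction of a Saccharomyces cerevisiae BJ5465 synthetic nanobody display library ran 36–48 hours. The cells were then stained for 1 hour at 4 °C with 10% biotinylated, detergent-solubilized Sf9 membrane reagent, pulled down on streptavidin microbeads and FACS-sorted into low and high (top ~1%) gates on expression and reagent-binding fluorescence. Labels for polyreactivity follow the gate of origin.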

Sequence | polyreactivity (PSR sort gate)
QVQLVESGGGLVQAGGSLRLSCAASGSTIPRYAMGWYRQAPGKERELVAAISGRGGSTYYADSVKGRFTISRDNAKNSFYFQLISLKPEDTAVYYCNAYRRYYTMYYWGQGTQVTVSS | high polyreactivity
QVQLVESGGGLVQAGGSLRLSCAASGSTIPSYAMGWYRPAPGKETELVASITYSDGTTRYADSVKGRFTISRDNAKNTVYLQMNSLIPEDTAVYYCNAVYYREGMDYWGQGTQVTVSS | low polyreactivity
QVQLVESGGGLVQAGGSLRLSCAASGSTIRLYAMGWYRQAPGKESELVAAISVSGGSTHYADSVKGRFTISRDNAKNTVYLQMNSLKPEYTAVYYFNAAGNPVSRYHYDYWGQGTQVTVSS | high polyreactivity
QVQLVESGGGLVQAGGSLRLSCAASGSTIRNYAMGWYRQAPGKERELVAAISSGGRTYYADSVKGRFTISRDNAKNTVYLQMNSLKPEDTAVYYCKGRSYSRMYYWGQGTQVTVSS | high polyreactivity
QVQLVESGGGLVQAGGSLRLSCAASGSTIRVYGMGWYRQAPGKERELVAAIRWIGGRTYYADSVKARFTISRDNAKNTVYLQMNSLKPEDTAVYYCNARAGPVRFDYWGQGTQVTVAS | low polyreactivity
QVQLVESGGGLVQAGGSLRLSCAASGSTIRYNAMGWYRQAPGKERELVAAISRSGGSTYYADSVKGRFTISRDNAKNTVYLQRTSLKTEDTAVYYCAADRGARGDYWGQGTQVTVSS | high polyreactivity
QVQLVESGGGLVQAGGSLRLSCAASGSTIRYNAMGWYRQAPGKERELVAAISRTGGTTYYADSVKGRFTISRDNAKNTVYLQMNSLKPEDTAVYYCNAVQAPYLRYDYWGQGTQVTVSS | high polyreactivity
QVQLVESGGGLVQAGGSLRLSCAASGSTISFLIMGWYRQAPGKERELVAAISRSGGRTYYADSVKGRFTISRDNAKNTVYFQMNSLKPEDTAVYYCAADYVSVDRIRYGYWGQGTQVTVSS | high polyreactivity
QVQLVESGGGLVQAGGSLRLSCAASGSTITRYAMGWYRQAPGKERELVAVISRSGGSTYYADSVKGRFTISRDNAKNTVYLQMNSLKPEDTAVYYCAAKYYGGRRSPYSYGYWGQGTQVTVSS | high polyreactivity
QVQLVESGGGLVQAGGSLRLSCAASGSTIVRYAMGWYRQAPGKERELVAAISGGGSTSYADSVKGRFTISRDNAKNTVYLQMNSLKPEDTAVYYCAKAGYRSEFEYWGQGTQVTVSS | low polyreactivity
QVQLVESGGGLVQAGGSLRLSCAASGSTIWSNAMGWYIQAPGKERELVAVISGGTSTNYADSVKGRFTISRDNAKNTVYLQMNSLKPEDTAVYYCAADWGSYLILINDTEMDYWGQGTQVTVSS | low polyreactivity
QVQLVESGGGLVQAGGSLRLSCAASGSTIYRYAMGGYRQAPGKERELVAAITWSGGSTYYADSVKGRFTISRDNAKNTVYLQMNSLKPADTAVYYCNAVARYYYKDQTIIHSPREDYWGQGTQVTVSS | low polyreactivity
QVQLVESGGGLVQAGGSLRLSCAASGSTIYTYAMGWSRQAPGKERELVAAINRSGGTTYYADSVKGRFTISRDNAKNTVYLQMNSLKPEDTADYYCARRRYGYDYWGQGTQVTVSS | high polyreactivity
QVQLVESGGGLVQAGGSLRLSCAASGSTIYTYVMGWYIQAPGKERELVAAISWSGSSTYYADSVKGRCTISRDNAKNTVYLQINSLKPEDTAVYYCNAKYRRGWWGVEYGYWGQGTQVTVSS | low polyreactivity
QVQLVESGGGLVQAGGSLRLSCAASGSTIYVNAMGWYIQAPGKERELVAAIRSSAGNTTYADSVKGRFTISRDNAKNTVYLQMNSLKPEVTAVYYCAADSRPYLRDYWGQGTQVTVSS | low polyreactivity
QVQLVESGGGLVQAGGSLRLSCAASGSTLAKKAMGWYRQEPGKERELVAAISKNGGTTYYADSVKGRFTISRDNAKNTVYLQMNSLKPEDTAVYYCAVSIWGWFASGFDYWGQGTQVTVSS | high polyreactivity
QVQLVESGGGLVQAGGSLRLSCAASGSTLALYTMGWYRQAPGKERELVAAISKNGGRTYYADSVKGRFTISRDNAKNTVYLKMNSLKPEDTAVYYCAAASGSYRGYDYWGQGTQVTVSS | high polyreactivity
QVQLVESGGGLVQAGGSLRLSCAASGSTLAPYAMGGYRQAPGKERELVASINWGGTTTYYADSVKGRFTISRDNAKNTVYLQMNSLIPEDTAVYYCAALGLRWGRSGYYYEYYYWGQGTQVTVSS | high polyreactivity
QVQLVESGGGLVQAGGSLRLSCAASGSTLAQYAMGWYRQAPGKETELVADISWSGGSTYYADSVKGRFTISRDNAKNTVYLQMNSLKPDDTAVYYCNAYAFDSVREEDYWGQGTQGTVSS | low polyreactivity
QVQLVESGGGLVQAGGSLRLSCAASGSTLATYTMGWYRQAPGKERELVAAISFGGSTYYADSVKGRFTISRDNAKNTVYLQMNSLKPEDTAVYYCAVYGDSYWGAYYYSDGYWGQGSQVTVSS | low polyreactivity
QVQLVESGGGLVQAGGSLRLSCAASGSTLAVYAKGWSRQAPGKERELVAVIDRGGSTYYADSVKGRFTISRDNAKNTVYLQLNCLKPEDTAVYFCNARRVKGYGYWGQGTQVTVSS | high polyreactivity

Sequence | polyreactivity (PSR sort gate)
QVQLVESGGGLVQAGGSLRLSCAASGSTLDIYAMGWYRQAPGKERELVAAITSGGSTNYADSVKGRFTISRDNAKTTVYLQLNSLKPEDTAVYSCNARYFRGYDYWGQGTQVSVSS | high polyreactivity
QVQLVESGGGLVQAGGSLRLSCAASGSTLDVYAMGWYRQAPGKERELVAAISWSVGSTYYADSVKGRFKISRDNAKNTVYLQMNSLKPEDTAVYYCAAEPYEYAYYGYDYWGQGTQVTVSS | high polyreactivity
QVQLVESGGGLVQAGGSLRLSCAASGSTLDVYDMGWYRQAPGKEREFVATISFSVGSTDYADSVKGRFTISRDNAKNTVYLQMNSLKPEDTAVYYCAADVSEWSNQYFDSYLRMDYWGQGTQVTVSS | low polyreactivity
QVQLVESGGGLVQAGGSLRLSCAASGSTLESYAMGWYRQAAGKERELVAAISKSGGRTYYADSVKGRFTISRDNAKNTVYLQMNSLKPEDTAVYYCAADSCTHLTYYWGQGTQVTVSS | high polyreactivity
QVQLVESGGGLVQAGGSLRLSCAASGSTLFAYAMGWYRQAPGKERELVAAITSGASTNCADSVKGRFTISRDNAKNTVYLQMNSLKPEDTAVYYCAKDVSGTNPDYDYWGQGTQVTVSS | low polyreactivity
QVQLVESGGGLVQAGGSLRLSCAASGSTLFGYAMGWYRQAPGKEREFVAAISRSGGRTYYADSVKGRFTISRDNAKNTVYLQMNSLKPEDTAVYYCATVRRRLSLTYDYWGQGTQVTVSS | high polyreactivity
QVQLVESGGGLVQAGGSLRLSCAASGSTLFLYAMGWYRQAPGKERELVAAITWSGGSTYYADSVKGRFTISRDNAKNTVYLQMNSLKPEDTAVYYCAKYGRYFWNSGVDYWGQGTQVTVSS | high polyreactivity
QVQLVESGGGLVQAGGSLRLSCAASGSTLFTYAMGWYRQAPGKERELVAAITSSGSTYYADSVKGRFTISRDNAKNTVYLQMNSLKPEDTAVYYCAVPGYRYTKYYYWGQGTQVTVSS | low polyreactivity
QVQLVESGGGLVQAGGSLRLSCAASGSTLGAYAMGWYRQAPGKERELVAAITYSTGSTYYADSVKGRFTISRDNAKNTVYLQMNSLKPEDTAVYYCAAATYQSRYFQRFDCWGQGTQVTVSS | high polyreactivity
QVQLVESGGGLVQAGGSLRLSCAASGSTLGGYAMGWYRQAPGKERELVASISWDDVRTYYADSVKGRFTISRDNAKNTVYLQMNSLKPEDTAVYYCAKGDIEYFWSRIYGYWGQGTQVTVSS | low polyreactivity
QVQLVESGGGLVQAGGSLRLSCAASGSTLGRNAMGWDRQAPGKEREFVAAITYSTGSTYYADSVKGRFTISRDNAKNTVYVQMNSLKPEDTAVYYCAKGRLTRGYVTFEYWGQGTQVTGSS | high polyreactivity
QVQLVESGGGLVQAGGSLRLSCAASGSTLGYNAMGCYRQAPGKERELVAAIRGGDDDTYYADSVKGRFTISRDNAKNTVYLQMNSMNPEDTAVYYCATGDTSIPYSPPGGYDSWGQGTQVTVSS | low polyreactivity
QVQLVESGGGLVQAGGSLRLSCAASGSTLGYYAMGWYRQAPGKERELVAAISKGGGSTYYADSVKGRFTISRDNAKNTVYLQMNSLKPEETAVYYCAAYSTSWSRYDYWGQGTQVTVSS | high polyreactivity
QVQLVESGGGLVQAGGSLRLSCAASGSTLHYYAMGWYRQAPGKERELVAAISATGGSTYYADSVKGRFTISRDNAKNTVYLQMNSLKPEDTAVYYCARTYRSHWVYTRLDYWGQGTQVTVSS | high polyreactivity
QVQLVESGGGLVQAGGSLRLSCAASGSTLIANAMGWYRQAPGKERELVAGITYRGGDITTYADSVKGRFTISRDNAKNTVYLQKTSLKPEDTAVYYCAARVVWPTWARGGYWGQGTQVTVSS | low polyreactivity
QVQLVESGGGLVQAGGSLRLSCAASGSTLKRYAMGWYRQAPGKERELVARISRIGGSTFYADSVKGRFTISRDNAKNTVYLQMNSLNPEDTAVYYCAAVPLHYVYRADQAYYRYNYWGQGTQVTVSS | high polyreactivity
QVQLVESGGGLVQAGGSLRLSCAASGSTLKYNAMGWYRQAPGKEREFVASITLSAGRTYYADSVKGRFTISRDNAKNTVYLQMNSLKPEDTAVYYCAARRYFSYRYDYWGQGTQVTVSS | high polyreactivity
QVQLVESGGGLVQAGGSLRLSCAASGSTLKYYAMGRYRQAPGKEMELVAAIRNLGGRTYYADSVKGRFTISRDNAKNTVYLQMNSLKPEDTAVYYCAAQFQSTAVGRDNYWGQGTQVTVSS | high polyreactivity
QVQLVESGGGLVQAGGSLRLSCAASGSTLLANAMGWYRQAPGKERELVATITNSGGGTYYADSVKGRFTISRDNAKNTVYLQMNSLKPEDTAVYYCAAVYTGRSQYSKWRYEYWGQGTQVTVSS | low polyreactivity
QVQLVESGGGLVQAGGSLRLSCAASGSTLLYYAMGWYRQAPGKERELVAAINKSGGRTYYADSVKGRFTISRDNAKNTVYLQMNSLKPEDTAVYYCAVDISVTGSSNRYGYWGQGTQVTVSS | high polyreactivity
